How the values were obtained:
[1] = molecular target: the molecule itself; assay: crystal structure; PfNPM NTD at 57 mg/ml, 0.2 M sodium malonate pH 5.0, 20% PEG3350; 3.25 Å, space group P3(1)21, five chains in the asymmetric unit
assembled H2A/H2B dimer [2] = molecular target: T1, assembled H2A/H2B dimer (UniProt P06897 1-130; P02281 1-126); assay: ITC; conditions: both partners purified
assembled H3/H4 tetramer [3] = molecular target: T2, assembled H3/H4 tetramer (UniProt P84233 1-136; P62799 1-103); assay: ITC; conditions: both partners purified
T2 construct: core histone H4, codon-optimized construct in pET21a(+), gift of Dr Curtis A. Davey, expressed without a fusion tag; the species of the histones is told nowhere; copies: 2 + 2

[4] = molecular target: the molecule itself; assay: AUC; sedimentation velocity, Optima AUC, absorbance at 280 nm 0.2-0.5, continuous size distribution (SEDFIT); PfNPM proteins alone and their histone complexes
assembled H2A/H2B dimer [5] = molecular target: T1, assembled H2A/H2B dimer; assay: AUC; conditions: both partners purified
assembled H3/H4 tetramer [6] = molecular target: T2, assembled H3/H4 tetramer; assay: AUC; conditions: both partners purified

Binder | stoichiometry N [1] | Kd (assembled H2A/H2B dimer [2]) [nM] | stoichiometry N (assembled H2A/H2B dimer [2]) | Kd (assembled H3/H4 tetramer [3]) [nM] | stoichiometry N (assembled H3/H4 tetramer [3]) | stoichiometry N [4] | stoichiometry N (assembled H2A/H2B dimer [5]) | stoichiometry N (assembled H3/H4 tetramer [6])
PfNPM NTD (Plasmodium falciparum nucleoplasmin N-terminal core domain, residues 1-98) (domain or fragment, UniProt C0H4U4 1-98, looked up, PfNPM, nucleoplasmin isoform of Plasmodium falciparum, PlasmoDB PF3D7_0813300, UniProtKB C0H4U4, residues 1-98 of the 315-residue full length; Cloned into pET28a(+) between NcoI and XhoI with a noncleavable C-terminal hexa-histidine tag; Pentamer by crystal structure, SV-AUC and SAXS; also called PfNPM NTD (1-98); not shown: His6, C-terminal, kept) MFYGKVVKPDETVVPEVKDGYSVIHLSRACLNNPEHEGKIYVQVEDGNGCYNICCLQKNVCEDTPLDIFLMLDNDVKIKTSGSSNEVHIVGYYEVSFG | 5 |  |  |  |  |  |  | 
PfNPM A3 (residues 1-170, up to A3 acidic tract) (domain or fragment, Plasmodium falciparum, UniProt C0H4U4 1-170, looked up, PfNPM, nucleoplasmin isoform of Plasmodium falciparum, PlasmoDB PF3D7_0813300, UniProtKB C0H4U4, residues 1-170 (NTD and acidic tracts A1 to A3); pET28a(+) NcoI/XhoI, noncleavable C-terminal hexa-histidine tag; Pentamer by SV-AUC, SAXS and cryo-EM 2D class averages; also called PfNPM (1-170); not shown: His6, C-terminal, kept) MFYGKVVKPDETVVPEVKDGYSVIHLSRACLNNPEHEGKIYVQVEDGNGCYNICCLQKNVCEDTPLDIFLMLDNDVKIKTSGSSNEVHIVGYYEVSFGQDNLDEDEDEFEDEFDNDEVRMLTKKNTLKNSLSNGISKRKKNLENNEDDETNVGRNDEDDDDEDDEDDEDE |  | 1000 ± 68.2 | 1 | 38.9 ± 2.2 | 1 | 5 | 1 PfNPM pentamer : H2A/H2B dimer | 1 PfNPM pentamer : H3/H4 tetramer
PfNPM A1 (residues 1-110, up to A1 acidic tract) (domain or fragment, Plasmodium falciparum, UniProt C0H4U4 1-110, looked up, PfNPM, nucleoplasmin isoform of Plasmodium falciparum, PlasmoDB PF3D7_0813300, UniProtKB C0H4U4, residues 1-110 (NTD and A1 acidic tract); pET28a(+) NcoI/XhoI, noncleavable C-terminal hexa-histidine tag; Pentamer by SV-AUC and SAXS; also called PfNPM (1-110); not shown: His6, C-terminal, kept) MFYGKVVKPDETVVPEVKDGYSVIHLSRACLNNPEHEGKIYVQVEDGNGCYNICCLQKNVCEDTPLDIFLMLDNDVKIKTSGSSNEVHIVGYYEVSFGQDNLDEDEDEFE |  | 1010 ± 68.6 | 1 | 58.5 ± 1.76 | 1 | 5 | 1 PfNPM pentamer : H2A/H2B dimer | 1 PfNPM pentamer : H3/H4 tetramer
